Data on 1 molecule can be found in patent publication US20210032294A1, “MODIFIED PlySs2 LYSINS AND USES THEREOF” (CONTRAFECT CORPORATION, priority 2018, published 2021).

For one data set, the system named is bacterial inoculum. The data set can be described thus: Thermal stability: in vitro lytic assay after 30 min heating. Type of data set: cell-based. The method, then:
Thermal stability was assessed by incubating the lysin polypeptides at a fixed concentration of 128 μg/mL in Tris buffer pH 8.0 for 30 minutes at various elevated temperatures (within the range of about 30° C. to 60° C.) prior to assessing activity. The samples were then cooled for 2 minutes on ice and activity was then assessed by an in vitro lytic assay by exposing a bacterial inoculum (OD600 ˜0.5-1.2) in Tris buffer to a 2-fold dilution series of each sample (diluted from 128-0.25 μg/mL across the x-axis of a 96 well microtiter plate). The loss of optical density was followed for 15 minute at room temperature, and the specific activity was determined based on the enzyme concentration enabling a 50% loss of optical density at 15 minutes. The enzyme activities of each variant were compared to the wild-type, CF-301 enzyme (GMT-grade PlySs2 protein) to calculate the % of Wild-Type Activity over a range of temperatures.
The thermal stability of wild-type, CF-301 was arbitrarily set at 100. The results for exemplary modified lysin polypeptides are set forth below in Table 5 at a single temperature of 37° C.:
In another experiment, the thermal stability of modified lysin polypeptides was assessed at different temperatures and compared with that of wild-type, CF-301 (set at 100).

Another data set has as its system MRSA strain MW2. The data set can be described thus: Serial passage resistance assay. Type of data set: cell-based, Staphylococcus aureus. The method, then:
An analysis of bacterial resistance was performed using MRSA strain MW2 over 18 days of serial passage in the presence of a pp296 dilution series and an antibiotic dilution series in presence and absence of sub-MIC amounts of pp296. Briefly, the broth microdilution MIC format was used in which 2-fold dilutions ranges of pp296 alone or antibiotic in the presence and absence of a fixed sub-MIC amount of pp296 was cultured with bacteria (5×10^5 CFU/ml starting concentration) in MHB for 20 hours at 37° C. The well with the highest concentration of the modified lysin polypeptide in which bacterial growth was seen was then used as the inoculum for the next day's passage, and the process was repeated over a […]. The MIC at each daily time-point was recorded, and resistance was measured as a step-wise increase in MIC. […] The results are depicted graphically in FIGS. 3A-3C.

Data set [1] has as its system 1-day old biofilms formed by MSSA isolates. The data set can be described thus: Minimum Biofilm Eradication Concentration (MBEC), MSSA biofilms. As to conditions: 24 hours treatment. It counts as cell-based, Staphylococcus aureus. Here is the method:
(§1) In some embodiments, the present modified lysin polypeptides are capable of reducing a biofilm. […] Biofilms are then washed and treated with e.g., a 2-fold dilution series of the lysin in TSBg at e.g., 37° C. for 24 hours. After treatment, wells are washed, air-dried at e.g., 37° C. and stained with e.g., 0.05% crystal violet for 10 minutes. After staining, the biofilms are destained in e.g., 33% acetic acid and the OD600 of e.g., extracted crystal violet is determined. The MBEC of each sample is the minimum lysin concentration required to remove >95% of the biofilm biomass assessed by crystal violet quantitation.
(§2) The anti-biofilm activity of pp296 was determined against 1-day old biofilms formed by 17 MSSA and 20 MRSA isolates in a 96-well broth microdilution format. The Minimum Biofilm Eradication Concentration (MBEC) values for pp296, compared to wild-type PlySs2 (CF-301), were determined by the following standard methodology. Bacteria were suspended in PBS (0.5 McFarland Units), diluted 1:100 in TSBg (66% tryptic soy broth, 0.2% glucose), added as 0.15 mL aliquots to 96-well polystyrene microplates, and incubated for 24 hours at 37° C. Biofilms were then washed and treated with a 2-fold dilution series of CF-301 or pp296 in TSBg at 37° C. for 24 hours. All samples were examined in triplicate. After treatment, wells were washed, air-dried at 37° C., and stained with 0.05% crystal violet for 10 min The loss of biofilm biomass was assessed visually, and crystal violet was quantitated by solubilization in 33% (vol/vol) acetic acid. The optical density of 600 nm (OD600) was determined using a SpectraMax M3 Multimode microplate reader. The MBEC of each sample was the minimum lysin concentration required to remove >95% of the biofilm biomass assessed by crystal violet quantitation.

Data set [2] relates to 1-day old biofilms formed by MRSA isolates. The data set can be described thus: Minimum Biofilm Eradication Concentration (MBEC), MRSA biofilms. It counts as cell-based, Staphylococcus aureus. As to conditions: 24 hours treatment. Here is the method: as §1, §2
Data set [3] in a line: Single 2-hour intravenous infusion toxicity study in rats. It counts as in vivo, Sprague Dawley rats. The text has this: The objectives of this study were to evaluate the potential toxicity and toxicokinetic profile of pp296 when administered as a single 2-hour intravenous infusion to Sprague Dawley rats, as well as to evaluate the recovery, persistence, or progression of any effects following a minimum of a 3-day recovery period.
The following Tables 9 and 10 present the study group arrangement. There were 5 male and 5 female rats per group in Phase A.
For the main (Phase A) and toxicokinetic (Phase B) phases, animals received a single 2-hour intravenous infusion. Phase A animals received a single 2-hour intravenous infusion at escalating doses until the maximum tolerated dose (MTD) was determined up to a high dose of 100 mg/kg. A minimum of 3 days of observation was allowed between each pp296 dose. Animals assigned to Groups 2 through 5 were necropsied approximately 72 hours following the end of dose administration. ^aThe vehicle was 20 mM L-histidine, 5% D-sorbitol (w/v), pH 7.0 (±0.1).
The following parameters and endpoints were evaluated in this study: clinical signs, body weight, body weight gain, food consumption, clinical pathology parameters (hematology, coagulation, serum chemistry, and urinalysis), gross necropsy findings, and histopathologic examinations.

Entries after “also recorded” stand apart in the source; their conditions may differ. Where only a bound is given, the exact number is not on record here.

B1: pp296: Modified PlySs2 lysin, SEQ ID NO: 6: L92W, V104S, V128T, Y137S, Y164K, N184D, S198Q (protein)
chain: MTTVNEALNNVRAQVGSGVSVGNGECYALASWYERMISPDATVGLGAGVGWVSGAIGDTISAKNIGSSYNWQANGWTVSTSGPFKAGQIVTWGATPGNPYGHVSIVEAVDGDRLTILEQNYGGKRYPTRNYYSAASSRQQVVHYITPPGTVAQSAPNLAGSRSKRETGTMTVTVDALNVRRAPDTSGEIVAVYKRGEQFDYDTAIIDVNGYAWVSYIGGSGKRNYVATGATKDGKRFGNAWGTFK
On to B1, for which, in the data set on bacterial inoculum (30 minutes at 37° C., 128 μg/mL in Tris buffer pH 8.0, CF-301 set at 100), the “% Wild-Type Activity at 37° C.” value was determined as 205%. The “% of CF-301 wild-type, 37° C.” value in the data set with bacterial inoculum (30 minutes at 37° C., another experiment) is 204.6%. Moreover, the “% of CF-301 wild-type, 40° C.” value with bacterial inoculum (30 minutes at 40° C.) is 243.1%. Besides, the “% of CF-301 wild-type, 42° C.” value with bacterial inoculum (30 minutes at 42° C.) is given as 141.2%. Besides, the “% of CF-301 wild-type, 45° C.” value with bacterial inoculum (30 minutes at 45° C.) stood at 40.1%. Further, in the data set with bacterial inoculum (30 minutes at 48° C.), the “% of CF-301 wild-type, 48° C.” value is 0.0%. Also, the “% of CF-301 wild-type, 50° C.” value in the data set on bacterial inoculum (30 minutes at 50° C.) is 0.0%. Moreover, the “Increase in MIC of DAP or VAN / appearance of antibiotic resistance” value with MRSA strain MW2 (antibiotic plus fixed sub-MIC amount of lysin) was “no or very little increase; also recorded: suppressed the appearance of daptomycin and vancomycin resistance”. In the data set on MRSA strain MW2 (lysin alone, three replicate lineages, 21-26 day period), the “Resistance to the lysin (increase in MIC on serial passage)” value was “no or very little increase; also recorded: no resistance to pp296 was observed”. For the same molecule, in the data set with MRSA strain MW2 (with daptomycin, 1/16th the MIC for pp296 alone), the “Amount needed to suppress DAP resistance” value amounted to 0.125 µg/mL. Besides, the “Amount needed to suppress development of VAN resistance” value with MRSA strain MW2 (with vancomycin, 1/8th the MIC for pp296 alone) stood at 0.25 µg/mL. Besides, in data set [1], the MBEC50 was determined as 0.063 µg/mL, the MBEC90 came out at 0.25 µg/mL and the “MBEC Range” value is 0.01 to 1 µg/mL. Also, in data set [2], the MBEC50 was determined as 0.031 µg/mL, the MBEC90 was 0.06 µg/mL and the “MBEC Range” value was 0.01 to 0.25 µg/mL. Moreover, the “No-observed-adverse-effect level (NOAEL)” value in data set [3] (single 2-hour intravenous infusion) was more than 100 mg/kg. In addition, the “Tolerability / adverse findings” value in data set [3] (single intravenous infusion, 5, 25, 50, and 100 mg/kg) is given as “well tolerated with no adverse findings at all doses; also recorded: well-tolerated with no adverse findings at all doses”.
